The record followed here is the supplement of paper PMC10266784.

Sequences and labels used below:
B1: library; numbered along this chain (parent)
chain: MAAAAAAAAEQQSSNGPVKKSMREKAVERRSVNKEHNSNFKAGYIPIDEDRLHKTGLRGRKGNLAICVIILLFILAVINLIITLVIWAVIRIGPNGCDSMEFHESGLLRFKQVSDMGVIHPLYKSTVGGRRNENLVITGNNQPIVFQQGTTKLSVENNKTSITSDIGMQFFDPRTQNILFSTDYETHEFHLPSGVKSLNVQKASTERITSNATSDLNIKVDGRAIVRGNEGVFIMGKTIEFHMGGNMELKAENSIILNGSVMVSTTRLPSSSSGDQLGSGDWVRYKLCMCADGTLFKVQVTSQNMGCQISDNPCGNTH

The series covers variants of B1. Description: SGCB cell-surface expression functional score (HA stain, bin4 vs bin1, normalised to synonymous) (log10 ratio); higher = more cell-surface SGCB (functional). The procedure, abridged:
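Sorting and sequencing yield the functional score, defined as the log ratio of a variant's highest-bin frequency to its lowest-bin frequency, with the median taken over codons and replicate transductions. The libraries, codon-saturation sets of HA-tagged, YFP-fused human beta-sarcoglycan, went into HEK293 cells stably carrying alpha-, gamma- and delta-sarcoglycan by duplicate lentiviral transduction at MOI <0.1. Cells were stained on ice with Alexa Fluor 647 anti-HA, fixed and split into four 5% intensity bins, and synonymous variants were scaled per section to mean 0, SD 0.5.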
Regarding MAAAAAAAAEQQSSNGPVKKSMREKAVERRSVNKEHNSNFKAGYIPIDEDRLHKTGLRGRKGNLAICVIILLFILAVINLIITLVIWAVIRIGPNGCDSMEFHESGLLRFKQVSDMGVIHPLYKSTVGGRRNENLVITGNNQPIVFQQGTTKLSVENNKTSITSDIGMQFFDPRTQNILFSTDYETHEFHLPSGVKSLNVQKASTERITSNATSDLNIKVDGRAIVRGNEGVFIMGKTIEFHMGGNMELKAENSIILNGSVMVSTTRLPSSSSGDQLGSGDWVRYKLCMCADGTLFKVQVTSQNMGCQISDNPCGNDH [T317D], the “SGCB cell-surface expression functional score (log10)” value is -1.71.
For the variant MAAAAAAAAEQQSSNGPVKKSMREKAVERRSVNKEHNSNFKAGYIPIDEDRLHKTGLRGRKGNLAICVIILLFILAVINLIITLVIWAVIRIGPNGCDSMEFHESGLLRFKQVSDMGVIHPLYKSTVGGRRNENLVITGNNQPIVFQQGTTKLSVENNKTSITSDIGMQFFDPRTQNILFSTDYETHEFHLPSGVKSLNVQKASTERITSNATSDLNIKVDGRAIVRGNEGVFIMGKTIEFHMGGNMELKAENSIILNGSVMVSTTRLPSSSSGDQLGSGDWVRYKLCMCADGTLFKVQVTSQNMGCQISDNPCGNNH [T317N], the “SGCB cell-surface expression functional score (log10)” value amounted to 0.08.
MAAAAAAAAEQQSSNGPVKKSMREKAVERRSVNKEHNSNFKAGYIPIDEDRLHKTGLRGRKGNLAICVIILLFILAVINLIITLVIWAVIRIGPNGCDSMEFHESGLLRFKQVSDMGVIHPLYKSTVGGRRNENLVITGNNQPIVFQQGTTKLSVENNKTSITSDIGMQFFDPRTQNILFSTDYETHEFHLPSGVKSLNVQKASTERITSNATSDLNIKVDGRAIVRGNEGVFIMGKTIEFHMGGNMELKAENSIILNGSVMVSTTRLPSSSSGDQLGSGDWVRYKLCMCADGTLFKVQVTSQNMGCQISDNPCGNIH [T317I]: the “SGCB cell-surface expression functional score (log10)” value was 0.05.
As to MAAAAAAAAEQQSSNGPVKKSMREKAVERRSVNKEHNSNFKAGYIPIDEDRLHKTGLRGRKGNLAICVIILLFILAVINLIITLVIWAVIRIGPNGCDSMEFHESGLLRFKQVSDMGVIHPLYKSTVGGRRNENLVITGNNQPIVFQQGTTKLSVENNKTSITSDIGMQFFDPRTQNILFSTDYETHEFHLPSGVKSLNVQKASTERITSNATSDLNIKVDGRAIVRGNEGVFIMGKTIEFHMGGNMELKAENSIILNGSVMVSTTRLPSSSSGDQLGSGDWVRYKLCMCADGTLFKVQVTSQNMGCQISDNPCGNKH [T317K], the “SGCB cell-surface expression functional score (log10)” value is 0.5.
Regarding MAAAAAAAAEQQSSNGPVKKSMREKAVERRSVNKEHNSNFKAGYIPIDEDRLHKTGLRGRKGNLAICVIILLFILAVINLIITLVIWAVIRIGPNGCDSMEFHESGLLRFKQVSDMGVIHPLYKSTVGGRRNENLVITGNNQPIVFQQGTTKLSVENNKTSITSDIGMQFFDPRTQNILFSTDYETHEFHLPSGVKSLNVQKASTERITSNATSDLNIKVDGRAIVRGNEGVFIMGKTIEFHMGGNMELKAENSIILNGSVMVSTTRLPSSSSGDQLGSGDWVRYKLCMCADGTLFKVQVTSQNMGCQISDNPCGNLH [T317L], the “SGCB cell-surface expression functional score (log10)” value was -0.33.
MAAAAAAAAEQQSSNGPVKKSMREKAVERRSVNKEHNSNFKAGYIPIDEDRLHKTGLRGRKGNLAICVIILLFILAVINLIITLVIWAVIRIGPNGCDSMEFHESGLLRFKQVSDMGVIHPLYKSTVGGRRNENLVITGNNQPIVFQQGTTKLSVENNKTSITSDIGMQFFDPRTQNILFSTDYETHEFHLPSGVKSLNVQKASTERITSNATSDLNIKVDGRAIVRGNEGVFIMGKTIEFHMGGNMELKAENSIILNGSVMVSTTRLPSSSSGDQLGSGDWVRYKLCMCADGTLFKVQVTSQNMGCQISDNPCGNMH [T317M]: the “SGCB cell-surface expression functional score (log10)” value was -0.28.
Under MAAAAAAAAEQQSSNGPVKKSMREKAVERRSVNKEHNSNFKAGYIPIDEDRLHKTGLRGRKGNLAICVIILLFILAVINLIITLVIWAVIRIGPNGCDSMEFHESGLLRFKQVSDMGVIHPLYKSTVGGRRNENLVITGNNQPIVFQQGTTKLSVENNKTSITSDIGMQFFDPRTQNILFSTDYETHEFHLPSGVKSLNVQKASTERITSNATSDLNIKVDGRAIVRGNEGVFIMGKTIEFHMGGNMELKAENSIILNGSVMVSTTRLPSSSSGDQLGSGDWVRYKLCMCADGTLFKVQVTSQNMGCQISDNPCGNAH [T317A] stands -0.21; under MAAAAAAAAEQQSSNGPVKKSMREKAVERRSVNKEHNSNFKAGYIPIDEDRLHKTGLRGRKGNLAICVIILLFILAVINLIITLVIWAVIRIGPNGCDSMEFHESGLLRFKQVSDMGVIHPLYKSTVGGRRNENLVITGNNQPIVFQQGTTKLSVENNKTSITSDIGMQFFDPRTQNILFSTDYETHEFHLPSGVKSLNVQKASTERITSNATSDLNIKVDGRAIVRGNEGVFIMGKTIEFHMGGNMELKAENSIILNGSVMVSTTRLPSSSSGDQLGSGDWVRYKLCMCADGTLFKVQVTSQNMGCQISDNPCGNFH [T317F], 0.01.
Under MAAAAAAAAEQQSSNGPVKKSMREKAVERRSVNKEHNSNFKAGYIPIDEDRLHKTGLRGRKGNLAICVIILLFILAVINLIITLVIWAVIRIGPNGCDSMEFHESGLLRFKQVSDMGVIHPLYKSTVGGRRNENLVITGNNQPIVFQQGTTKLSVENNKTSITSDIGMQFFDPRTQNILFSTDYETHEFHLPSGVKSLNVQKASTERITSNATSDLNIKVDGRAIVRGNEGVFIMGKTIEFHMGGNMELKAENSIILNGSVMVSTTRLPSSSSGDQLGSGDWVRYKLCMCADGTLFKVQVTSQNMGCQISDNPCGNGH [T317G] stands 0.44.
Take MAAAAAAAAEQQSSNGPVKKSMREKAVERRSVNKEHNSNFKAGYIPIDEDRLHKTGLRGRKGNLAICVIILLFILAVINLIITLVIWAVIRIGPNGCDSMEFHESGLLRFKQVSDMGVIHPLYKSTVGGRRNENLVITGNNQPIVFQQGTTKLSVENNKTSITSDIGMQFFDPRTQNILFSTDYETHEFHLPSGVKSLNVQKASTERITSNATSDLNIKVDGRAIVRGNEGVFIMGKTIEFHMGGNMELKAENSIILNGSVMVSTTRLPSSSSGDQLGSGDWVRYKLCMCADGTLFKVQVTSQNMGCQISDNPCGNEH [T317E]: the “SGCB cell-surface expression functional score (log10)” value is -0.34.
Regarding MAAAAAAAAEQQSSNGPVKKSMREKAVERRSVNKEHNSNFKAGYIPIDEDRLHKTGLRGRKGNLAICVIILLFILAVINLIITLVIWAVIRIGPNGCDSMEFHESGLLRFKQVSDMGVIHPLYKSTVGGRRNENLVITGNNQPIVFQQGTTKLSVENNKTSITSDIGMQFFDPRTQNILFSTDYETHEFHLPSGVKSLNVQKASTERITSNATSDLNIKVDGRAIVRGNEGVFIMGKTIEFHMGGNMELKAENSIILNGSVMVSTTRLPSSSSGDQLGSGDWVRYKLCMCADGTLFKVQVTSQNMGCQISDNPCGNPH [T317P], the “SGCB cell-surface expression functional score (log10)” value was -0.04.
Then MAAAAAAAAEQQSSNGPVKKSMREKAVERRSVNKEHNSNFKAGYIPIDEDRLHKTGLRGRKGNLAICVIILLFILAVINLIITLVIWAVIRIGPNGCDSMEFHESGLLRFKQVSDMGVIHPLYKSTVGGRRNENLVITGNNQPIVFQQGTTKLSVENNKTSITSDIGMQFFDPRTQNILFSTDYETHEFHLPSGVKSLNVQKASTERITSNATSDLNIKVDGRAIVRGNEGVFIMGKTIEFHMGGNMELKAENSIILNGSVMVSTTRLPSSSSGDQLGSGDWVRYKLCMCADGTLFKVQVTSQNMGCQISDNPCGNHH [T317H], with -0.39; and MAAAAAAAAEQQSSNGPVKKSMREKAVERRSVNKEHNSNFKAGYIPIDEDRLHKTGLRGRKGNLAICVIILLFILAVINLIITLVIWAVIRIGPNGCDSMEFHESGLLRFKQVSDMGVIHPLYKSTVGGRRNENLVITGNNQPIVFQQGTTKLSVENNKTSITSDIGMQFFDPRTQNILFSTDYETHEFHLPSGVKSLNVQKASTERITSNATSDLNIKVDGRAIVRGNEGVFIMGKTIEFHMGGNMELKAENSIILNGSVMVSTTRLPSSSSGDQLGSGDWVRYKLCMCADGTLFKVQVTSQNMGCQISDNPCGNCH [T317C], with 0.17.
In the case of MAAAAAAAAEQQSSNGPVKKSMREKAVERRSVNKEHNSNFKAGYIPIDEDRLHKTGLRGRKGNLAICVIILLFILAVINLIITLVIWAVIRIGPNGCDSMEFHESGLLRFKQVSDMGVIHPLYKSTVGGRRNENLVITGNNQPIVFQQGTTKLSVENNKTSITSDIGMQFFDPRTQNILFSTDYETHEFHLPSGVKSLNVQKASTERITSNATSDLNIKVDGRAIVRGNEGVFIMGKTIEFHMGGNMELKAENSIILNGSVMVSTTRLPSSSSGDQLGSGDWVRYKLCMCADGTLFKVQVTSQNMGCQISDNPCGRTH [N316R], the “SGCB cell-surface expression functional score (log10)” value is 0.15.
Take MAAAAAAAAEQQSSNGPVKKSMREKAVERRSVNKEHNSNFKAGYIPIDEDRLHKTGLRGRKGNLAICVIILLFILAVINLIITLVIWAVIRIGPNGCDSMEFHESGLLRFKQVSDMGVIHPLYKSTVGGRRNENLVITGNNQPIVFQQGTTKLSVENNKTSITSDIGMQFFDPRTQNILFSTDYETHEFHLPSGVKSLNVQKASTERITSNATSDLNIKVDGRAIVRGNEGVFIMGKTIEFHMGGNMELKAENSIILNGSVMVSTTRLPSSSSGDQLGSGDWVRYKLCMCADGTLFKVQVTSQNMGCQISDNPCGWTH [N316W]: the “SGCB cell-surface expression functional score (log10)” value was -0.12.
As to MAAAAAAAAEQQSSNGPVKKSMREKAVERRSVNKEHNSNFKAGYIPIDEDRLHKTGLRGRKGNLAICVIILLFILAVINLIITLVIWAVIRIGPNGCDSMEFHESGLLRFKQVSDMGVIHPLYKSTVGGRRNENLVITGNNQPIVFQQGTTKLSVENNKTSITSDIGMQFFDPRTQNILFSTDYETHEFHLPSGVKSLNVQKASTERITSNATSDLNIKVDGRAIVRGNEGVFIMGKTIEFHMGGNMELKAENSIILNGSVMVSTTRLPSSSSGDQLGSGDWVRYKLCMCADGTLFKVQVTSQNMGCQISDNPCGYTH [N316Y], the “SGCB cell-surface expression functional score (log10)” value was 0.39.
For the variant MAAAAAAAAEQQSSNGPVKKSMREKAVERRSVNKEHNSNFKAGYIPIDEDRLHKTGLRGRKGNLAICVIILLFILAVINLIITLVIWAVIRIGPNGCDSMEFHESGLLRFKQVSDMGVIHPLYKSTVGGRRNENLVITGNNQPIVFQQGTTKLSVENNKTSITSDIGMQFFDPRTQNILFSTDYETHEFHLPSGVKSLNVQKASTERITSNATSDLNIKVDGRAIVRGNEGVFIMGKTIEFHMGGNMELKAENSIILNGSVMVSTTRLPSSSSGDQLGSGDWVRYKLCMCADGTLFKVQVTSQNMGCQISDNPCGSTH [N316S], the “SGCB cell-surface expression functional score (log10)” value is -0.05.
Regarding MAAAAAAAAEQQSSNGPVKKSMREKAVERRSVNKEHNSNFKAGYIPIDEDRLHKTGLRGRKGNLAICVIILLFILAVINLIITLVIWAVIRIGPNGCDSMEFHESGLLRFKQVSDMGVIHPLYKSTVGGRRNENLVITGNNQPIVFQQGTTKLSVENNKTSITSDIGMQFFDPRTQNILFSTDYETHEFHLPSGVKSLNVQKASTERITSNATSDLNIKVDGRAIVRGNEGVFIMGKTIEFHMGGNMELKAENSIILNGSVMVSTTRLPSSSSGDQLGSGDWVRYKLCMCADGTLFKVQVTSQNMGCQISDNPCGTTH [N316T], the “SGCB cell-surface expression functional score (log10)” value worked out at 0.37.
Then MAAAAAAAAEQQSSNGPVKKSMREKAVERRSVNKEHNSNFKAGYIPIDEDRLHKTGLRGRKGNLAICVIILLFILAVINLIITLVIWAVIRIGPNGCDSMEFHESGLLRFKQVSDMGVIHPLYKSTVGGRRNENLVITGNNQPIVFQQGTTKLSVENNKTSITSDIGMQFFDPRTQNILFSTDYETHEFHLPSGVKSLNVQKASTERITSNATSDLNIKVDGRAIVRGNEGVFIMGKTIEFHMGGNMELKAENSIILNGSVMVSTTRLPSSSSGDQLGSGDWVRYKLCMCADGTLFKVQVTSQNMGCQISDNPCGVTH [N316V], with -0.19.
